We go through 1 molecule from patent US20110243928A1.

In one test the target is T1, 16 mer peptide 40.
T1 sequence (peptide, N-terminal biotin; C-terminal amide): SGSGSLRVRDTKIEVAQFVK
As to the kind of experiment: 16 mer peptide ELISA.

The target in another test is 16 mer peptide 41. The experiment in a line: 16 mer peptide ELISA.
Chain of 16 mer peptide 41 (peptide, as listed by the source limits assumed): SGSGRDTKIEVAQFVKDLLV

B1: monoclonal antibody 6A1 (antibody, IgG1, V domains shown)
VH: EIQLQQSVAELVRPGASVRLSCTASGFYIKDTYMHWVIQRPEQGLEWIGTIDPANGNTKYVPKFQGKATITADTSSNTAYLRLSSLTSEDTAIYYCARSIYDDYHYDDYYAMDYWGQGTSVTVSS
VL: DVLMTQTPLSLPVSLGDQASISCRSSQNIVHINGNTYLEWYLQKPGQSPKLLIYKISDRFSGVPDRFSGSGSGTDFTLKISRVEAEDLGVYYCFQGSHVPWTFGGGTKLEIK
For B1, the absorbance at 490 nm is 0.06 A490 with 16 mer peptide 40 and 0.058 A490 with 16 mer peptide 41.
